# From patent US20240016956A1
# Several values for one entry are separate records, joined by “and”; a condition that tells them apart may be missing. Identical values can stand only once.
# Target: AAV9 capsid (of the vector AAV9.CAG.GFP / AAV9 test virus) (AAV9)
# Assay: cell-based or functional assay
substance,measurement,value
"IVIG (intravenous immunoglobulin), a purified mix of IgG obtained from thousands of healthy donors",AAV9 NAb50 Titer in HEK293 cells (fresh IVIG sample) (reciprocal dilution),160 and 320
